Results reported in PMC2834670.

Molecular target: T1, MleR (Streptococcus mutans UA159?) (UniProt Q8DWC9)
T1 sequence: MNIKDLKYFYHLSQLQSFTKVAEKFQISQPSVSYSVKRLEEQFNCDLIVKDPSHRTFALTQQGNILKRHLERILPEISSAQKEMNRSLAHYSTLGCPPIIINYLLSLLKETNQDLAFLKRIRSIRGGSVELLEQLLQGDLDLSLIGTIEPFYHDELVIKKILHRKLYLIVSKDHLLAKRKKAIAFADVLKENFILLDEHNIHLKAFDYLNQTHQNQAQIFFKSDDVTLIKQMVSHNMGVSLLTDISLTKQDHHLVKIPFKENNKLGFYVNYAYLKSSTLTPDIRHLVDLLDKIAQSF
Assay: EMSA
Settings: 20 mM Tris pH 7.5, 100 mM KCl, 2 mM EDTA, 10% glycerol, ~100 ng MleR, equal amount of competitor DNA (EP10/11 at 75 ng/ul), 20 min ambient temperature; 4.5% …

Sequence: GGTATCTTTGCGGCTATGGATATCACAGGTGAAAAATTGACTGATCAAGTCTATCTCTGTTACGGTGGCGGTACAGCAGGTGCGGGTATTGCCTCTCGTGTCTTGCGTGAAA (double strand) [internal mleS fragment (137qF/R)]
- binding: no binding
